# Measurements taken from the RNAGym collection of RNA variant scans (doi:10.1073/pnas.2313332121).
# B1: TPR t1 (parent)
# chain: GACCAAUCUGCCCUCAGAGCUCGAGAACAUCUUCGGAUGCAGAGGAGGCAGGCUUCGGUGGCGCGAUAGCGCCAACGUCCUCAACCUCCAAUGCAUCCCACCACAUGAUGAUGCCUGAAGAGCCUUGGUUUUUUG
# Variants of: B1
# Assay: polymerase ribozyme fitness, log enrichment relative to wild type (log ratio); higher = more active; in vitro selection for triplet polymerase activity
# Outline: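 Both subunits of a heterodimeric triplet polymerase ribozyme were given their own mutant library, built by PCR and transcribed. Each library was annealed with a biotinylated primer, the partner subunit and triplets, incubated frozen at −7 °C, and its extended constructs gel-excised, captured on streptavidin beads and amplified by RT-PCR, all in one round done in triplicate. Fitness is the logarithm of genotype enrichment relative to wild-type enrichment, with replicates averaged by inverse-variance weighting. That logarithm is base 2, and Illumina-sequenced genotypes needed ≥10 input reads and ≥1 read per output.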
row,Variant,polymerase ribozyme fitness (log ratio)
1,U14C C22U U32C,-5.53
2,C15A A41C C104U,-2.15
3,C13U G45U A84G A121U,0.667
4,C13U A100U C101U C104U A121C,1.33
5,U14G U21C G42U,-3.13
6,C13U A41U,-0.968
7,U14A A24C C49G C72U U92C G113U U116A,-6.78
8,C13G G110A,-1.87
9,C13U A46G G47U C82A,-1.52
10,C13U C28G C101A C104A,-5.64
11,U14C U67A G69A,-5.17
12,C13G C62G A66U G113U,-7.31
13,U14A A29G U55C C72U C86U,-4.41
14,U14A G39A U55A U78C G117C,-7.2
15,U14A U54G A84U C98A A103U G117A C123G G128A,-6.1
16,C13G G17A C115U,-1.42
17,C13U C28G C34G C49A C76A A100C U109A C123G,-6.13
18,U14A G19A G42U A43C C70A,-6.34
19,C13U A91U,-0.839
20,U14C G71U A91U C114A A121U C124U,-4.54
21,U14G G61C,-4.21

row,Variant,polymerase ribozyme fitness (log ratio)
1,U14C C15U C73G,-3.76
2,C13G G42U C49U G61U U130A,-4.93
3,U14A G61C,-3.93
4,U14G G63A,-2.49
5,C13U C28G G120C,-1.05
6,C13G U59C,0.688
7,C15A U33C C70U A111U,-5.94
8,C15A C85G,-3.35
9,C15A G57A U78A G110U C124G,-3.91
10,C15A G42A G71U G117C,-5.93
11,C13U G44A C49U C86G C102U U106G U112G A121C U131A U133A,-6.07
12,C13G U59A C62G,-3.87
13,C15A C56G,-3.39
14,C15A G45U A84U C123U,-2.4
15,C13G G52U G60A C104U C115G A121C,-3.16
16,U14G C80U C89G,-4.89
17,C15A G120U,-1.44
18,C15A G120C,-0.2
19,C13G C82U U131A,-2.89
20,C13U G45U C82U,-0.895
21,C15A A43U C76G,-3.73

row,Variant,polymerase ribozyme fitness (log ratio)
1,U14G C101G,-3.2
2,U14G C56A G120C,-0.0635
3,C13G G113A A118C,-4.34
4,C15A A24U C72G C76U C123G,-6.56
5,C13G G39U C115U,-2.63
6,U14A C101U,-3.07
7,C13U C72A C101A C114A,-1.86
8,U14G C22U A29G C124G U129C,-3.15
9,U14G A43U C88G,-3.5
10,C13U C28G A43G C62U G110C,-1.17
11,C13G G71C A91U,-3.97
12,C13U C34G G47U C72G U112A,-5.6
13,C13U U106G,-0.787
14,C15A G71U C104A,-4.07
15,C13U C86U,-0.506
16,C13U C34U C40U A50G U59C,-5.78
17,C15A U54A C56G C72A,-2.89
18,C13U C28G A43G G110C,-0.443
19,C15A C53U G63C,-2.5
20,C13U G19A G45C U59C C82U U112A,0.0802
21,C13G U21A G52C A91C G120C,-3.21

row,Variant,polymerase ribozyme fitness (log ratio)
1,U14G G58A A95U G117C,-5.13
2,C13G C53G U59C U133G,-1.68
3,C13U C56U,0.718
4,C13G C101U,-2.08
5,U14A,-1.85
6,U14C,-1.23
7,U14G,-1.56
8,U14G A91U,-3.73
9,C13U C49U G57A C82G U106A,-0.895
10,U14A G48U U59G,-2.71
11,C15A G48C C123G,-1.77
12,C13U G71U A111G U126G,-0.972
13,C13U G17A,-1.44
14,C13G G51C G61C C104U G120C,-6.03
15,U14C A46C C79U U106C,-3.22
16,C13U G71A,-0.0397
17,C13U A43C G71A C82A C98G C102A A105U G117C,-6.77
18,U14G U21G C40A G48C U106A,-5.19
19,U14A A46C C70A U112A A119G G122C,-2.7
20,C15A G47U C64U C123U,-2.43
